Reference: US20220169708A1 (University of California, published 2022)

T1: cystic fibrosis transmembrane conductance regulator (CFTR) inhibitory factor (Cif) (Pseudomonas aeruginosa, UniProt A0A0H2ZD27 25-319)
T1 construct: also called CIF protein; Cif-protein
T1 sequence: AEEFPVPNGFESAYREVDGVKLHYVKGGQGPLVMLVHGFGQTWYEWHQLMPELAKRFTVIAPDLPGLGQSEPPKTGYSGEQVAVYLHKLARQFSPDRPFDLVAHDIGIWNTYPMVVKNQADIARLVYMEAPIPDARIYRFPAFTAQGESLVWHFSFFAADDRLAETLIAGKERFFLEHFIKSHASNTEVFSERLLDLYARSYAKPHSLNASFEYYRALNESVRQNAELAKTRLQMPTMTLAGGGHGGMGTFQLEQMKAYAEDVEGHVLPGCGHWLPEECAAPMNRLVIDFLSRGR


target: T1, cystic fibrosis transmembrane …; assay: sandwich ELISA, upper graph: Cif in serial dilution (about 0.05-100 ng/mL) captured on anti-Cif pAb 0.3 ug/well, VHH 50 ng/well, anti-HA mAb detection; the concentration is that of Cif; sheet labels the value IC50, text calls it EC50
Description: (§1) 1). Immunoassay. A 96-well plate was coated with pAb at 3 μg/mL, 100 μL per well at RT for 1 h. The plate was blocked with 1% skimmed milk in PBST at RT for at least 2 h. Cif in PBS was loaded on the plate with increasing concentration and incubated for 1 h at RT. Following 5 times wash with PBST, VHH at 0.5 μg/mL in PBS, 100 μL per well (or 50 ng/well) was loaded. The plate was incubated for 1h at RT and then washed 5 times with wash buffer. Mouse anti-HA-HRP conjugate was added at 100 μl/well in a 1:3000 dilution as instructed by manufacturer. The plate was incubated for 1h at RT and washed 5 times. The plate was developed for 10 min with substrate solution added at 100 μl/well. The reaction was stopped by addition of 2M H₂SO₄ (50 μl/well) and absorbance was read at 450 nm. SigmaPlot 11.0 software was used for curve fitting and data analysis.
(§2) To evaluate produced recombinant antibodies, classical sandwich ELISA was performed using purified rabbit polyclonal anti-Cif antibodies as a capturing antibody (FIG. 3). […] Cif protein was loaded in a serial dilution range of 0.05-100 ng/mL and VHHs were added at 50 ng per well.

| Binder | EC50 [µg/mL] |
| --- | --- |
| VHH CLONE 213 (VHH, The entry includes the C-terminal 6xHis and HA tags) VHH: EVQLVESVGGLVQPGGSLRLSCVASGNIGDIYTMGWYRQAPGKQRELVATVGDGGLTNFVDSVKGRFTISRDKSKGTVSLEMNSLKPEDTAVYYCNADVRIGPTGLRVYWGQGTQVTVSS | 0.011 |
| VHH CLONE 108 (VHH, The entry includes the C-terminal 6xHis and HA tags) VHH: EVQLVESGGGLVQPGGSLRLSCEATGNFDDRGIGWFRQAPGKEREGIACITTRGRTHYAESVEGRFTISTDIANNAVYLQMNSLKPEDTAVYYCAKAIRLTTDRTQCVAFPGVSWGRGTQVTVSS | 0.0098 |
| VHH CLONE 320 (VHH, The entry includes the C-terminal 6xHis and HA tags; also called nanobody 320) VHH: DVQLQASGGGLVQPGGSLRLSCATSTSVFSITTLGWYRQAPGKQRELVASMKRGGDTNYADSVKGRFTISRDNARNTVFLQMNNLTTEDTAVYYCNAAILAYTGAVTNYWGQGTQVTVSS | 0.0061 |

target: T1, cystic fibrosis transmembrane …; assay: sandwich ELISA, lower graph: Cif in serial dilution (about 0.05-100 ng/mL) captured on anti-Cif pAb 0.3 ug/well, VHH 50 ng/well, anti-HA mAb detection; the concentration is that of Cif; sheet labels the value IC50, text calls it EC50
Description: as §1, §2

| Binder | EC50 [µg/mL] |
| --- | --- |
| VHH CLONE 103 (VHH, The entry includes the C-terminal 6xHis and HA tags) VHH: EVQLMESAGGLVRPGGSLRLSCVASGSIGDIYSMGWYRQAPGKQRELVATVGAGGLTDYGDSVLGRFTISRDKTKGTVSLEMNSLKPEDTAVYYCNADVSIGPTGLRVYWGQGTQVTVSS | 0.0168 |
| VHH CLONE 220 (VHH, The entry includes the C-terminal 6xHis and HA tags; also called nanobody 220) VHH: EVQLVESGGGLVQPGGSLRLSCVASGNIGNIYTMGWYRQAPGKQRELVAAVGAGELTNYVDSVKGRFTISRDKSKGTVSLEMNSLKPEDTAVYYCNADVSIGPTGLRVYWGQGTQVTVSS | 0.0211 |
| VHH CLONE 302 (VHH, The entry includes the C-terminal 6xHis and HA tags) VHH: QVKLQESGGGLVQPGGSLRLSCVASGNIGDIYTMGWYRQAPGKQRELVATVGDGGLTNFVDSVKGRFTISRDKSKGTVSLEMNSLKPEDTAVYYCNADVRIGPTGLRVYWGQGTQVTVSS | 0.0172 |
| VHH CLONE 116 (VHH, The entry includes the C-terminal 6xHis and HA tags) VHH: EVQLVESGGGLVQPGGSLRLSCTASGSILKIYTMDWYRQAPGKQRDLVATVSSRGDTDYTDSVKGRFTISRDDAKNTAYLQMSSLKPEDTAVYYCNFYIQSRTAPFNDYWGQGTQVTVSS | 0.0312 |
| VHH CLONE 205 (VHH, The entry includes the C-terminal 6xHis and HA tags) VHH: DVQLQASGGGLVQPGGSLRLSCAATGSTDRIAFMGWYRQAPGKLRELVAGITSDGRTNYADDVDVSGRFTISRDSAKNMVYLQMNSLKPEDTAVYYCNADITLAMGGLRVYWGQGTQVTVSS | 0.0207 |
